Molecular target: the molecule itself
Test: AUC

B1: SARS 3C-like proteinase (SARS-3CLpro), wild type (enzyme)
chain: SGFRKMAFPSGKVEGCMVQVTCGTTTLNGLWLDDTVYCPRHVICTAEDMLNPNYEDLLIRKSNHSFLVQAGNVQLRVIGHSMQNCLLRLKVDTSNPKTPKYKFVRIQPGQTFSVLACYNGSPSGVYQCAMRPNHTIKGSFLNGSCGSVGFNIDYDCVSFCYMHHMELPTGVHAGTDLEGKFYGPFVDRQTAQAAGTDTTITLNVLAWLYAAVINGDRWFLNRFTTTLNDFNLVAMKYNYEPLTQDHVDILGPLSAQTGIAVLDMCAALKELLQNGMNGRTILGSTILEDEFTPFDVVRQCSGVTFQ
stoichiometry N: 2

— publication PMC4754693 (Scientific Reports, 2016)
